Results as given in patent publication US20250066499A1 (SUNSHINE GUOJIAN PHARMACEUTICAL SHANGHAI, published 2025).
Positions count from the first letter of the chain named.

T1: CD73-ND-Y135A (human, UniProt P21589 27-317)
T1 construct: Alanine mutant of CD73-ND
T1 sequence: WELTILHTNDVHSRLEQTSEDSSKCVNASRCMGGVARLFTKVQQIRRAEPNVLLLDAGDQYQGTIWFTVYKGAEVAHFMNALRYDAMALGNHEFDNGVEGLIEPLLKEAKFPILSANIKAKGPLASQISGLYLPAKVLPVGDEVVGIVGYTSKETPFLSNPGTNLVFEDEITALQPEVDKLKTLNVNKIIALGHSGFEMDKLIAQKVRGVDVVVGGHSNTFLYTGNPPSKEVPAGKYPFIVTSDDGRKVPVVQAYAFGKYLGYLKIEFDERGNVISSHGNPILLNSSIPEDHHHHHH

T2: CD73-ND-V137A (human, UniProt P21589 27-317)
T2 construct: Alanine mutant of CD73-ND
T2 sequence: T1 sequence with A135Y, V137A

T3: CD73-ND-Y132A (human, UniProt P21589 27-317)
T3 construct: Alanine mutant of CD73-ND
T3 sequence: T1 sequence with Y132A, A135Y

T4: CD73-ND-L133A (human, UniProt P21589 27-317)
T4 construct: Alanine mutant of CD73-ND
T4 sequence: T1 sequence with L133A, A135Y

T5: human CD73-His protein (human, UniProt P21589 27-549)
T5 construct: Expressed in HEK-293F with a signal peptide that is not specified; In the ELISAs it was biotinylated with EZ-Link NHS-Biotin (CD73-biotin) and captured on streptavidin; in SPR and the enzyme assay it was used as CD73-His; also called CD73-his antigen; CD73-biotin
T5 sequence: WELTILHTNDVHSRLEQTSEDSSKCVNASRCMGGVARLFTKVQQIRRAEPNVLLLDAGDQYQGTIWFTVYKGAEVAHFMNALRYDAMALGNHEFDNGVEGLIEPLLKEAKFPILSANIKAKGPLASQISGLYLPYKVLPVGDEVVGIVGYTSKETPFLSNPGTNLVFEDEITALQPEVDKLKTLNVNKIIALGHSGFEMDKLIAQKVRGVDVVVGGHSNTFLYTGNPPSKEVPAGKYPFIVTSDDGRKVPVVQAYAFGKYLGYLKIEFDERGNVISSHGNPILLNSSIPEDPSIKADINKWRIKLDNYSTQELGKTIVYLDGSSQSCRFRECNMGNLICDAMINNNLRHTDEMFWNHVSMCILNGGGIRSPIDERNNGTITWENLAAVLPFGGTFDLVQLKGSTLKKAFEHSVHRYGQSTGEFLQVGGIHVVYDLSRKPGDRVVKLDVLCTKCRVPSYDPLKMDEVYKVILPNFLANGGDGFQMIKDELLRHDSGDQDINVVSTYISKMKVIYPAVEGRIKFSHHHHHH

B1: 48A11-HuV33 (antibody, human IgG4, V domains shown)
VH: QVQLVQSGAEVKKPGASVKVSCKASGYTFTSYWMHWVRQAPGQGLEWIGEINPSIGRTNYNEKFKSRVTLTRDTSTSTAYMELSSLRSEDTAVYYCARRVYGTMDYWGQGTLVTVSS
VL: DIQMTQSPSSLSASVGDRVTITCKASQDINSYLSWFQQKPGKSPKLLIYRANIWVDGVPSRFSGSGSGQDYTFTISSLQPEDIATYYCLQYDELYTFGQGTKVEIK
notes: Humanized
B2: 56B10-HuV31 (antibody, human IgG4, V domains shown)
VH: QVQLQQSGAEVKKPGASVKVSCKASGYTFTRYYIYWVRQRPGQGLEWIGWIYPGNFNTKYNEKFKGRATLTADTSASTAYMELSSLTSEDTAVYYCARDVYDYAGFAYWGQGTLVTVSS
VL: DIQLTQSPSFLSASVGDRVTITCKASQGVATAVAWYQQKPGQSPKLLIYWASTRHTGVPDRFSGSGSGTEFTLTISSLQPEDFATYYCQQYSSYPWTFGQGTKVEIK
notes: Humanized

Assays:
CD73-ND-Y135A = biological target: T1, CD73-ND-Y135A; experiment: ELISA, biotinylated antigen on streptavidin plate
Procedure: (§1) The ELISA plates were coated with SA protein diluted to 1.5 μg/mL in coating buffer (50 mM carbonate coating buffer, pH 9.6) and incubated overnight at 4° C. The supernatant was discarded, and the plates were washed three times with PBST. Then, 5% skimmed milk powder prepared with PBS was added for blocking and the plates were incubated for 2 h at 37° C. After washing the plates once with PBST, CD73-biotin protein (prepared by biotinylating CD73-His protein according to the EZ-Link NHS-Biotin Reagent instructions) was diluted to 0.5 μg/mL and added at 100 μL/well for incubation at room temperature for 1 h. The plates were washed three times with PBST, and the prepared murine-derived monoclonal antibodies against human CD73 were serially diluted with 1% BSA buffer prepared with PBST and added to the ELISA plates at 100 μl/well. The plates were incubated at 37° C. for 1 h. After washing the plates three times with PBST, HRP-labeled goat anti-mouse IgG secondary antibody was added and the plates were incubated for 30 min at 37° C. After washing the plates three times with PBST, the residual droplets were patted dry on absorbent paper as much as possible. Then, 100 μl of TMB color developing solution was added to each well, and the plates were incubated in the dark at room temperature for 5 min for color development. Subsequently, 50 μl of 2M H₂SO₄ stop solution was added to each well to terminate the substrate reaction. The OD values were read at 450 nm using a multimode microplate reader to analyze the binding ability of the tested antibodies to the target antigen human CD73-His.
(§2) Referring to the experimental method in Example 3, the affinity of 48A11-HuV33 for various mutant proteins of CD73-ND was determined. The SA protein was diluted to 1 μg/mL for coating the ELISA plates, and the biotinylated CD73 protein (CD73-biotin) was used at a concentration of 0.1 μg/mL.

CD73-ND-V137A = biological target: T2, CD73-ND-V137A; experiment: ELISA, biotinylated antigen on streptavidin plate
Procedure: as §1, §2

CD73-ND-Y132A = biological target: T3, CD73-ND-Y132A; experiment: ELISA, biotinylated antigen on streptavidin plate
Procedure: as §1, §2

CD73-ND-L133A = biological target: T4, CD73-ND-L133A; experiment: ELISA, biotinylated antigen on streptavidin plate
Procedure: as §1, §2

human CD73-His protein = biological target: T5, human CD73-His protein; experiment: ELISA as in Example 3, antigen CD73-his, antibody titrated, absorbance 450 nm

Row | Binder | EC50 (CD73-ND-Y135A) | EC50 (CD73-ND-V137A) | EC50 (CD73-ND-Y132A) | EC50 (CD73-ND-L133A) | EC50 (read off the curve) (human CD73-His protein)
1 | B1 | 0.165 nM | 0.891 nM | 10.5 nM | 25.8 nM | –
2 | B2 | – | – | – | – | ~0.07 nM
